Results on one substance are retold here after US20230330253A1.

The assay has as its target human claudin 18.2 (CLDN18.2) (human). Kind of assay: cell-based or functional assay.

Substance IgG (Control) (antibody) came in with a Fluorescence, pHAb internalization on MKN45-CLDN18.2 cells, 20 nM antibody, normalized by DAR of 854 and a Fluorescence, pHAb internalization on MKN45-CLDN18.2 cells, 100 nM antibody, normalized by DAR of 2700.
